Experimental data: the DeepSol protein solubility set

Test: soluble on expression in E. coli; label from the status in PepcDB or PDB records

Row | Sequence | soluble on expression in E. coli
1 | MGSDKIHHHHHHCDDFLDSFPQDTVTNENFWKSKEDADKVLVDIYASLLPKDAIFFDEAMSDNAYLVWDWWGGAQQVANGSYTTSGEIPTNRWNGSYEVIRKCWFLLEGIEKIEDISEQDKNKIIGETYFMLAYNYYVLTSYFGDVPLVTKTLAIPESKQLVRTPKAEVVDYAINKLKEAAVMLEGLSQEKGRVTADACRFLIARMYLYNGDYSNVLETVKLLEGKYQLYREGDTPYEDLFSGVAENSCEVILSVVCDKRVGEIYTSHGGNGIMLLKGITGEDPYRGVTPSGSLVDAYPMADGRLIHEAGSSYDPKKPYEGRDPRFYQSIVYPTGQIKYLDVETGTVKERLYDPEDPTTVPEHQYNYSQPSATGYMWNKYIDYSVYAMNSVWDCTNDIIVFRYADVLLMKAEALLQTKGESAKEEVCNLIDQLRDRCSCGRVHRENYNSKDELMELLKNERRIELANEGLRYMDLIRWKDAEKNTIVTGVGLTGQMYGAYMRKDGVGKDDKTVDVDNTPRRYIETRYFNASKGYLFPIPQKERDLNPNLTQNPNW | not soluble
2 | MKKISRKEYVSMYGPTTGDKVRLGDTDLIAEVEHDYTIYGEELKFGGGKTLREGMSQSNNPSKEELDLIITNALIVDYTGIYKADIGIKDGKIAGIGKGGNKDMQDGVKNNLSVGPATEALAGEGLIVTAGGIDTHIHFISPQQIPTAFASGVTTMIGGGTGPADGTNATTITPGRRNLKWMLRAAEEYSMNLGFLAKGNASNDASLADQIEAGAIGFKIHEDWGTTPSAINHALDVADKYDVQVAIHTDTLNEAGCVEDTMAAIAGRTMHTFHTEGAGGGHAPDIIKVAGEHNILPASTNPTIPFTVNTEAEHMDMLMVCHHLDKSIKEDVQFADSRIRPQTIAAEDTLHDMGAFSITSSDSQAMGRVGEVITRTWQTADKNKKEFGRLKEEKGDNDNFRIKRYLSKYTINPAIAHGISEYVGSVEVGKVADLVLWSPAFFGVKPNMIIKGGFIALSQMGDANASIPTPQPVYYREMFAHHGKAKYDANITFVSQAAYDKGIKEELGLERQVLPVKNCRNVTKKDMQFNNTTAHIEVNPETYHVFVDGKEVTSKPANKVSLAQLFSIF | soluble
3 | MYPADFASQLNVLTLAEMKKTIHDILDFRDEDIWMLFGTLPVFPCLKDDEDQKLLSRLRNANNVTTRNDPDGRSRLNVNVFTGNVIVTDFGDETGTISNIQKDKLTDVFDKWLSSDLAKSLNCHCSEFSCLGPNVLVKNMYYPNMDFKDNERHMHKQPQIIQF | not soluble
